From article PMC10783083, “Val43 residue of NsrR is crucial for the nitric oxide response of Salmonella Typhimurium”

What was measured:
[1] = target: NsrR V43A (Salmonella enterica serovar Typhimurium …, UniProt Q8ZKA3 1-141, V43A); assay: EMSA; no NO; 0.0625-4 uM protein; stronger than WT; conditions: protein: recombinant; tags: N-terminal His (pET28a); chain copies: 2; label: 32P (5' by T4 PNK); blunt
[2] = target: NsrR V43A, in vitro translated (Salmonella enterica serovar Typhimurium …, UniProt Q8ZKA3 1-141, V43A); assay: EMSA; 2 uM; clear shift; conditions: protein: ivt; tags: N-terminal His (pET28a); chain copies: 2; label: 32P (5' by T4 PNK); blunt

B1: hmp probe (dsDNA)
DNA 1: AAGATGCATTTGATATACATCATT
DNA 2: AATGATGTATATCAAATGCATCTT
binding result [1]: binds
binding result [2]: binds
